According to the DeepSol protein solubility set:

Assay: soluble on expression in E. coli; label from the status in PepcDB or PDB records

| Sequence | soluble on expression in E. coli |
| --- | --- |
| MAHHHHHHMSSPFFGEQRKTRHNRSCSSCDSLPRYAASPPCHPQYAKVDRAAPSVSSPTFSSVPPSPKFPALCMHAMSHTNSTVPSSKLPFSNSVTGNGAALIGTLASFDSEAPRGRPASVAEDGAASGSSSGLSRAAVLMSGRGDASPPFSPQPSGSVLAVFCPLTSKAWQSGTLRDGIAFDVDTTSKVSTISPQTGLQSPLLFSSGWSQQSVSAAAQGTPPSFMGTPGQSLISAGAEGDDAEDTPHSCGAMYSPNHSVSLLPAPKVFVSVYPVQSPEPFATKFTGSPVFEVSLTTPPSIRAPQTGAARGAGATPAPSSRLPSESLEQYSLLRSPILHSLTPLSISPSAPLSPGFGCITGTEPMQSRLSRHRLATSAGSEQLPVRTSNDMRSRNAAVASPPPAAVPSVNSNHESLSDRLVSPARRSYRCPLPSSNEASLSSFFAVDDAGLHANLSMTQASEEDAAHRAASATLPRVCSSKDTEAEEGVAAALAPDTTDDPFEAFWDISPAAQWGGSVTEMLPRITTSSAPFETGSASRSVTAFASGTHEKDSHSSEEFNQNNRLSCVSMERHRNTILHRPSAAQQRNTILHRPSVVQQRNSVNRSVDTQRTTSKTMTLQQRQRRFSLQQEDSIEIKRRSYA | not soluble |
| MLFIIKYYEPKNLYEHILFILKHLCRSKSMILNPQKLSVDFGNGITATEPIIPRRYTLTHSDITAKLFLNIGLTYAYNKMTTMRDEVLGEWVKKSQDYSYQVFLHVDGRLGPKTTAIRNKIFRRELPLALEAIRYGDKRFFNAHPYLDNAPITVFFISTNPNFNKIENWGTFSDYNIESYYRNYKNVYLLDRKVGDVTGDDIPDTVSLYGEKEAPSEIFADDITVIITDGSTGNTTTITPEFNSGYNPTIFLGDFTKNRVYDIKISIDSGGSGGYGFFYIYSFMENTFREIFNFDAYNKEYKYKVDYDDLYKVNVGAITLNKLFILDISYKGYDVLSQYYYENGKLIKPVDGDVLALGALVPIVSNELLDFYNLLAFQRIIGTYNADTLGYVQNLLSWDGKNFTPSSTFVNISGSSLISPYLEHHHHHH | not soluble |
| MAHHHHHHSLITANDIRAAHARGEQAMSVVLRASIITPEAREVAELLGFTITECDESVPASTSAQACKSESQRIREAIIAQLPEGQFTESLVAQLMEKVLKEKQSLELGTMQPSFTSVTGKGGVKVIDGSSVKFGRFDGAEPHCVGLTDLVTEQDGSSMAAGFMQWDNAFFPWTLNYDEIDMVLEGELHVRHEGETMIAKAGDVMFIPKGSSIEFGTPTSVRFLYVAWPANWQSVEG | soluble |
| DSKDTRQFVKSIAKDAHRIGQDNDIYASVMIAQAILESDSGRSALAKSPNHNLFGIKGAFEGNSVPFNTLEADGNKLYSINAGFRKYPSTKESLKDYSDLIKNGIDGNRTIYKPTWKSEADSYKDATSHLSKTYATDPNYAKKLNSIIKHYQL | not soluble |
| MAHHHHHHMNLDEFNELVEQRNRIEREIQENVNFLEAPENKGVGLHGKLVDEEGFPRNDIDIYSIRVARNKVICLKNDYLNVSKRIEEYLHKVHTSHPVIRVQRSKAKKEEGDDPNESPPESCTQDYDESAPGYELLIEEAKRSTFAMIDELVENSPSHKAGLRINDYIIQFGDVQKKKKKNEENEKEDADIFNRIAAYMRNNPTRIKVKILREGKIFFYFVFPNRTPNGLYIGCHLTPISVGGGSV | not soluble |
| MRILFIGDVVGSPGRDMVKEYVPKLKTKYKPHFTIINGENAAHGKGLTEKIYHSLIQSGADAITMGNHTWDKKEIFDFIDDVPNLVRPANFPEGTPGKGITYVKANGKELAVINLQGRTFLPPLDDPFLKADELSPEAAKRTPYIFIDFHAEATSEKLALGWYTDGRASAVVGTHTHVQTADNRILPKGTAYITDVGMTGPYDGILGMDRETIIKRFKTNLPVRFTVAEGKTTLSGVVIDIDDQTKKAVKIERILINDDHMFFE | soluble |
| MEKDISRKIDLLNILIEEKRWFTLFELEKNLNCSSKTIRKDISIINDLLPKTIFIHSKKGKGVKLSLPQNQSISEAISNLLKKSLTFLAIQQLLEERSNTVTSLADKLYLPISSTNIVLKRVSKYIKKFGLSLEKKPLRIVGDEFQIILMFSERYLESYPDTEWPFTEYKEEMLIDYINYIEEKLEIVFYSNDKRRMAFIMTILFKRIKQGHKVKFSEWIIKETMESIYYKKIFEGKNVIKVNKNRSLNIEEQVLLVIMVKLSRYVSKDENNLKQEELVLYKEGESTTYTYVKNFISILEQELKIDLNNNEEFVYGMIEYCREAFHILKFIPILKAPEKDTCKYIKKHYEETFYLVKRAYNKWGAEMKLTDIPDEEIAKVTMRIVAIGKQHNINRKKVLLITGEGKSWEEYMKSRINKRYGDQLKFVGGHAKILNGNTDNIDNIDIDFIITTVPLNFSWKSIVYVSPILQERDFYEIGIFASK | not soluble |
| MSVDSEETSSNGVVPPNSLPPKPEARFGRHVRSFSVDSDFFDDLGVTEEKFIATSSGEKKKGNHHHSRSNSMDGEMSSASFNIESILASVSGKDSGKKNMGMGGDRLAELALLDPKRAKRILANRQSAARSKERKIRYTGELERKVQTLQNEATTLSAQVTMLQRGTSELNTENKHLKMRLQALEQQAELRDALNEALRDELNRLKVVAGEIPQGNGNSYNRAQFSSQQSAMNQFGNKTNQQMSTNGQPSLPSYMDFTKRG | soluble |
| MSLDRVEVLGVEFVEFTADQTEAEALGSLLGAMGFRAVASHREKAVTLWRQGCDHRGINVVINTEQKGFAHSSYLVHGASAYAIGLKVPDASAAVERARALGAEIFLPESGEGEGAMAAIRGMGGGLIYFVDEIDDVWSREFVAPGDDRQPAATLVAIDHVAQSMKEEQLPSWLLFYTSILDADKLAQVDIVDPAGLVRSQVVENASGTLRLTLNGADNHRTLAGHFIAESFGSGVQHVAFRTDDIFEAAEHMRRSGFRALAISRNYYDDIEVRFALEPGFVDRLRDENILYDRDEDGEYFQIYGPTFGEGFFFEIVERRSGYRGYGAANAPFRIAAQKRCLRPAGMPAEGSSRVDLQVCRPKKGIITITTDPNSSSVDKLAAALEHHHHHH | soluble |
| SQLNPTVMISGSSANNHRFDNLVAILNRQSTTHSLLRVQVNEDNSISYSGRIRPNDSQPYIVIGFQNNSDGYANIKRQAKWLEIAMKFLQKRYHFNHFNAFGHSNGGLDWTIYLEKYFNQKSSTIGTLMTVGSPFNFSEKSESNRTQMLTDLIKNRSKLPRDMTVYSIAGTETYNDDGIVPIESVLSGKYVFQKNVHSYTQITVSGNDSEHSDLPTNPQIVQLIQRDILDGRGQKQSSNPVFNNH | not soluble |
| MSYRKKLTSPEDAVGLIRSGMRVFVSGNAATPTPLLKALAARKDELENVELVHLLQMGEDPFASLEMEGHFRRRSLFVGPADREAVNQGRADYVPVMLHQVPWLFKRGILPLDAAIVQVSPPDEHGFCSLGVEVIATKAAVEAAPIVIAMVNPRMPRTLGDTFVHVSRFTAIVEVDWPLPELKREGFGEVERRIGEHVAGLIEDGATLQMGIGAIPDAVLASLEGRRDLGVHTEMISDGVLEAWEKGLITGAKKSLHPGKIVGTFVLGSERLYRFVHDNPLFELHPADYVNDPFVIAQNRKMVAINSAIEVDLTGQVVADSIGTRIYSGFGGQLDFIRGAARSEGGKPIIALPSTAKGQSRIVPFLKPGAGVVTTRADVHYVVTEWGVAELFGRSLRERAKALIAIAHPDFREALLQGAWERGLLPRGYPGVDLKGLEEKRGRP | soluble |
| HGPAEISDLDRQIEQLRRCELIKESEVKALCAKAREILVEESNVQRVDSPVTVCGDIHGQFYDLKELFRVGGDVPETNYLFMGDFVDRGFYSVETFLLLLALKVRYPDRITLIRGNHESRQITQVYGFYDECLRKYGSVTVWRYCTEIFDYLSLSAIIDGKIFCVHGGLSPSIQTLDQIRTIDRKQEVPHDGPMCDLLWSDPEDTTGWGVSPRGAGYLFGSDVVAQFNAANDIDMICRAHQLVMEGYKWHFNETVLTVWSAPNYCYRCGNVAAILELDEHLQKDFIIFEAAPQETVRASSPSPL | soluble |
| MGSDKIHHHHHHMQIKEFLISRRSEVVNNFYDNYYTQTDEYKLRLSAGEDEQSIRSLSTASCGMIIDVITGVKERDFENIGKRRFNDKTDIRKIHQHMSEIDKFIINSLLKWKETEDVFYTDADIIQFMLEIKDTLASIQQQLLEGFMQENRNQVMAQRKEIIQLSTRIIPITDSIGVLPIVGSLDDDRGYFMKEKAIESADKLNLDFIVIDFSSAVLKDDFATKHMEDMIQSFKLIGLIPILSGMQPSFAQRTIQVGSNISKLQSFGSLEQALTNLGL | not soluble |
| MSLEFLQRDQAPLTAEEWEQIDKTAYEVFKSTVVCRKFMPVVGPFGAGHQVVSYDVLYGVEPGVCEVKPGQEYKVCEPVRTGERKHVPVPTLYKDFVISWRDLEHWRQFNLPVDTTGVAAAASSLAVAEDKLILFGNQEMGIEGFLTAKGTLREELSDWEKVGNAFQDVVKGISRLVEKGFYTNYYLIVNPKRYFLLNRIHDNTGLLELEQIKKVVKEVYQTPIIPEDIVLLVSASPANFDLAIALDVNVAFVETSNMNHTFRVMEMVVPRIKRPEAILIFSSEGHHHHHH | not soluble |
| NKGKDITSWVNKALDAIAALFSAKTWKRKPKMKVHYGNNTRQNDYDYNARKKAQSDEIDRILDKLKKSGYESLTTEEKKSLFDASKR | not soluble |
| AHHHHHHGSNQLEAVREKLRVIRMLRVLKKTYTYEDLSEITGLPVTVLNRYVKGKVLPSVERARELFEKLSPYLNLEEEVKKRLRFDSHGFFDSMSVLSDTNLLALISEDVALKYMKVGVEKILTAATDGIPLAVQIANELGVDVVYAKKKKEVGVERFYEVNYIPSASGSITTLYLPTWALKKGERVLIVDDVVRSGETQRALVELCRQAGAIPVGMFFLISVGDIVERLKEEYNIPVEALVNL | soluble |
| MDRISQLSDDLLLQILSFIPGKDVVATSLLSKRWQSLWMLVSELEYDDSYHTGDYKSFSQFVYRSLLSNNAPVIKHLHLNLGPDCPAIDIGLWIGFALTRRLRQLKINIRTSSNDASFSLPSSLYTSDTLETLRLINFVLLDVPSSVCLPSLKVLHLKTVDYEDDASLPSLLFGCPNLEELFVERHDQDLEMDVTFVVPSLRRLSMIDKNYGQCDRYVIDVPSLKYLNITDDAVYDVRQIENMPELVEAHVDITQGVTHKFLRALTSVRQLSLCLSLSEKQHESGLCGIETPIGWKLPSSVPECLLFSLEAFEWIGYKGRRGDREVATYVLKNAACLRTAKFSPESTDVGEKYHMLKELASVPTASTSSKLLFD | soluble |
| MHFRMKVLENSSKHNTPKKQKTFQHYLPAGDRCYSCIHCRANLAAHAELISKSFQGSQGKAYLFNAVVNVGCGPAEERVLLTGLHAVADIYCEICKTTLGWKYEHAFESSQKYKEGKFIIELAHMVKDNGWDEQNDS | not soluble |
| YKEEDSTVSILPTSLPQIHRANMLAQGSPAASKISPLVTKKSKTRWHFGIRSRSYPLDVMGEIYIALKNLGAEWAKPSEEDLWTIKLRWKYDIGNKTNTNEKIPDLMKMVIQLFQIETNNYLVDFKFDGWESSYGDDTTVSNISEDEMSTFSAYPFLHLTTKLIMELAVNS | soluble |
| IARVVVHPDYRADGLGILAVRTAVEWIEERRVPEMRMRKHLVETIAQMARFNPFFEKAGFYYLWDTASGKPVLYKPLSEEAE | not soluble |
| YPNASPLLGSSWGGLIHLYTATARNSYHLQIHKNGHVDGAPHQTIYSALMIRSEDAGFVVITGVMSRRYLCMDFRGNIFGSHYFDPENCRFQHQTLENGYDVYHSPQYHFLVSLGRAKRAFLPGMNPPPYSQFLSRRNEIPLIHFNTPIPRRHTR | soluble |
| MITVSIVSHGQSTLVEQLLADLVRLDMSMVTEVLVTLNIPEDISSKPGDYPYPVRILRNTAARGFGANHNAAFRQAEGEWFCVMNPDIRLINNPFPILIEEGAYDSAGVIAPMVVTPSGMIEDSVRCFPVLTSLAAKLFGHGDGRYLFAAGDEAFAADWVAGMFMLFRTEDFRAVGGFDEGFFLYYEDVDICARLWKSGRSVLACPKASVIHDARRSSRRNLRYMKWHALSLIRYFWKHWGRLPQTPEQLEHHHHHH | soluble |
